Four molecules from patent US20240261446A1 (UNIVERSIT DE LI GE, published 2024) can be followed below.

The target of experiment [1] is T1, recombinant biotinylated CD38 (human, UniProt P28907 43-300, biotinylated (sites not given)).
T1 construct: also called biotinylated CD38 antigen; biotin-labelled recombinant CD38 protein
T1 sequence: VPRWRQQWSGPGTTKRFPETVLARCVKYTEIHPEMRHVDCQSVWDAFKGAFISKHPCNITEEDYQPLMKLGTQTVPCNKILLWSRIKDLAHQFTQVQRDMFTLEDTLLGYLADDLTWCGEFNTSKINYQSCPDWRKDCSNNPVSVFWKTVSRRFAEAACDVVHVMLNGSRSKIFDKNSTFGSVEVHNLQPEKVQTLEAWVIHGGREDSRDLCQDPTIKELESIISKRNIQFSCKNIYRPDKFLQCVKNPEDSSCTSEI
The experiment in a line: BLI. A general note: BLI is a label-free optical method that tracks binding on a fibre tip over time.

The target in experiment [2] is T1, recombinant biotinylated CD38. The experiment in a line: BLI, biotinylated CD38 on streptavidin sensors, 1:1 model.
Experiment [3] shares this target. Briefly: biolayer interferometry; biotinylated CD38 on streptavidin sensors; 1:1 binding model.
Method: Next, the ability of the anti-CD38 nanobodies to recognise the biotinylated CD38 antigen was investigated by Biolayer Interferometry (BLI) that allows determination of the binding kinetics parameters. The binding affinities were estimated by testing different concentrations (seven) of nanobodies with BLI. These experiments were realised in a 96-well plate and consisted of different steps. First, recombinant and biotinylated CD38 (10 μg/mL) was loaded on the surface of streptavidin-coupled sensors and washed using a PBS-based buffer (PBS 50 mM pH 7, BSA 0.1%, Tween 0.02%) in order to remove any unbound CD38. Then, biocytin was added to saturate the sensors and to avoid non-specific interactions during the subsequent association step. Afterwards, the nanobodies were diluted at concentrations and brought in contact with the CD38 coated sensors to monitor the association of the nanobodies to the receptors. […] Octet Data Analysis software version 8.0 was used for curve fitting and the determination of the binding parameters, including the KD, using a 1:1 binding model.
Experiment [4] has as its target T2, human CD38 receptor expressed on cells (RPMI-8226 and other CD38+ cell lines) (human, UniProt P28907 1-300).
T2 construct: Endogenous CD38 of human myeloma and lymphoma cell lines; also called CD38^+ RPMI-8226 cells
T2 sequence: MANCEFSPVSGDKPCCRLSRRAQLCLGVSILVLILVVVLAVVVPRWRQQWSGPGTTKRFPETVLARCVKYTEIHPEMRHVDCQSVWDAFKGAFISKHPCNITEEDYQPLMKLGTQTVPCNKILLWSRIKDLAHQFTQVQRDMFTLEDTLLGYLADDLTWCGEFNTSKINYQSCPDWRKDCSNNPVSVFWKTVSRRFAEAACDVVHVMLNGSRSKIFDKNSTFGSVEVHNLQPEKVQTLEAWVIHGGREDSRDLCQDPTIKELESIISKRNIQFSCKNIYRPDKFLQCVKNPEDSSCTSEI
Briefly: saturation binding of the radiolabelled nanobody on CD38+ RPMI-8226 cells, 1 hour at 4 °C.

For experiment [5], the target named is T1, recombinant biotinylated CD38. Briefly: BLI, biotinylated CD38 on streptavidin sensors, 10 to 150 nM conjugate, 1:1 model.
Method: First, recombinant and biotinylated CD38 (1 μg/mL) was loaded on the surface of streptavidin-coupled sensors and washed using a PBS-based buffer in order to remove any unbound CD38. Then, biocytin was added to saturate the sensors and to avoid non-specific interactions during the subsequent association step. Afterwards, the nanobodies-PNA1 were diluted at concentrations and brought in contact with the CD38 coated sensors to monitor the association of the nanobodies to the receptors. Finally, the sensors were placed in a fresh buffer in order to measure the dissociation rate of the nanobodies-PNA1 from the receptors. Octet Data Analysis software version 8.0 was used for curve fitting and the determination of the binding parameters, including the KD, using a 1:1 binding model.
For experiment [6] the target is unchanged. The experiment in a line: BLI, immobilised CD38 on SA sensors, OctetHTX, conjugate 100 to 20 nM.
Method: Values are from a serial dilution of conjugate from 100 to 20 nM.

B1: anti-CD38 nanobody 2F8 (Nb2F8) with C-terminal hexahistidine tag (VHH)
VHH: QVQLVESGGGSVQAGGSLRLSCAASGYTDSDYIMAWFRQAPGKEREVVATIYIGGTYIHYADSVKGRFTISRDNAENTVYLQMNNLKPEDTAMYYCAATKWRPFISTRAAEYNYWGQGTLVTVSS
notes: Produced in E. coli WK6 with a His6 tag and also in an untagged form; The flow cytometry used the His-tagged form (anti-His detection); also called sdAb 2F8
As to B1, the dissociation constant Kd (as a rule, the constant that tells how readily two partners part at equilibrium) is 1.46 nM in experiment [1], 0.73 nM in experiment [2] and 0.734 nM in experiment [3].

B2: ^111In-DTPA-Nb2F8 (VHH)
VHH: QVQLVESGGGSVQAGGSLRLSCAASGYTDSDYIMAWFRQAPGKEREVVATIYIGGTYIHYADSVKGRFTISRDNAENTVYLQMNNLKPEDTAMYYCAATKWRPFISTRAAEYNYWGQGTLVTVSS
modifications: CHX-A''-DTPA on lysine epsilon-amino groups (positions not stated), chelating Indium-111
For B2, in experiment [4], the Kd was determined as 16.7 nM.

B3: Nb2F8-PNA1 conjugate (VHH)
VHH: QVQLVESGGGSVQAGGSLRLSCAASGYTDSDYIMAWFRQAPGKEREVVATIYIGGTYIHYADSVKGRFTISRDNAENTVYLQMNNLKPEDTAMYYCAATKWRPFISTRAAEYNYWGQGTLVTVSS
modifications: the C-terminal GGGSS is continued by the peptide nucleic acid a-g-t-c-t-g-g-a-t-g-t-a-g-t-c (SEQ ID NO: 15) and then E-K(DOTA)-AEEA-E-NH2
notes: Made by Sortase A ligation of PNA1 to Nb2F8-FL-SR-His6 and purified by reverse IMAC; also called nanobody 2F8 coupled with the PNA1
With B3, the Kd in experiment [5] is 13.4 nM.

B4: sdAb 2F8 conjugated to the bifunctional chelator DTPA (2F8-DTPA) (VHH)
VHH: QVQLVESGGGSVQAGGSLRLSCAASGYTDSDYIMAWFRQAPGKEREVVATIYIGGTYIHYADSVKGRFTISRDNAENTVYLQMNNLKPEDTAMYYCAATKWRPFISTRAAEYNYWGQGTLVTVSS
modifications: CHX-A''-DTPA conjugated to the free epsilon-amino groups of lysines (number and positions not stated)
notes: also called Nb2F8-DTPA conjugate
Consider B4, for which, in experiment [6], the Kd was 1.6 nM; the off-rate (koff) – broadly, a measure of how fast the partners let go of each other – is 0.000412 s⁻¹; the kon (usually the second-order rate constant of association) came out at 258000 M⁻¹ s⁻¹.
